Results published in patent publication US20230265151A1, “GIP/GLP1 CO-AGONIST COMPOUNDS” (priority 2020, published 2023).

What was measured:
Experiment in all cases: cell-based or functional assay
human GLP-1 receptor = human GLP-1 receptor (human, UniProt P43220 24-463)
human GIP receptor = target: T1, human GIP receptor (human, UniProt P48546 22-466)
T1 sequence (looked up): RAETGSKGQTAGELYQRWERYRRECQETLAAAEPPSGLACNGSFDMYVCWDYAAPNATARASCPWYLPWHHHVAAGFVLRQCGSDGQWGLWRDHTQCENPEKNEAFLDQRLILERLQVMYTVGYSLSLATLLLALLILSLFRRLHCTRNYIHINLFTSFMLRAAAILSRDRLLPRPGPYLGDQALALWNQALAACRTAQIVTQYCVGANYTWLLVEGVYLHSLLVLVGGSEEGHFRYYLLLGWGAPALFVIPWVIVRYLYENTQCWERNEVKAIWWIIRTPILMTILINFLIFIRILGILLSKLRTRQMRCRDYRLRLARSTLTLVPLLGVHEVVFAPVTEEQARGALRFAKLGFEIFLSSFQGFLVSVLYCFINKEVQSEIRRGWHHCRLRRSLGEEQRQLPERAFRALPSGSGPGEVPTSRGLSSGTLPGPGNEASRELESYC

human glucagon receptor = human glucagon receptor (human, UniProt P47871 26-477)

B1: Example 283 (peptide)
peptide: YXEGTXTSDXSIXLDXIAQXEFIKXLIKGGPSSGAPPPS
modifications: Y-Aib-EGT-αMeF(2F)-TSD-2Nal-SI-αMeL-LD-Orn-IAQ-Aib-EFIK((2-[2-(2-Amino-ethoxy)-ethoxy]-acetyl)2-(γ-Glu)-(10-(4-carboxyphenoxy)decanoyl))-αMeY-LIK((2-[2-(2-Amino-ethoxy)-ethoxy]-acetyl)2-(γ-Glu)-(10-(4-carboxyphenoxy)decanoyl))GGPSSGAPPPS-NH2
cAMP EC50 (1.0% HSA) (human GLP-1 receptor): 49.5 nM
cAMP EC50 (1.0% HSA) (human GIP receptor): 4.88 nM
cAMP EC50 (1.0% HSA) (human glucagon receptor): > 9950 nM

B2: Example 279 (peptide)
peptide: YXEGTXTSDXSIXLDXIAQXEFIKXLIKGGPSSGAPPPS
modifications: Y-Aib-EGT-αMeF(2F)-TSD-OMeY-SI-αMeL-LD-Orn-IAQ-Aib-EFIK((2-[2-(2-Amino-ethoxy)-ethoxy]-acetyl)2-(γ-Glu)-(10-(4-carboxyphenoxy)decanoyl))-αMeY-LIK((2-[2-(2-Amino-ethoxy)-ethoxy]-acetyl)2-(γ-Glu)-(10-(4-carboxyphenoxy)decanoyl))GGPSSGAPPPS-NH2
cAMP EC50 (1.0% HSA) (human GLP-1 receptor): 36.6 nM
cAMP EC50 (1.0% HSA) (human GIP receptor): 3.21 nM
cAMP EC50 (1.0% HSA) (human glucagon receptor): > 9950 nM

B3: Example 281 (peptide)
peptide: YXEGTXTSDXSIXLDXKAQXKFIXXLIEGGPSSGAPPPS
modifications: Y-Aib-EGT-αMeF(2F)-TSD-2Nal-SI-αMeL-LD-Orn-K((2-[2-(2-Amino-ethoxy)-ethoxy]-acetyl)2-(γ-Glu)-(10-(4-carboxyphenoxy)decanoyl))AQ-Aib-K((2-[2-(2-Amino-ethoxy)-ethoxy]-acetyl)2-(γ-Glu)-(10-(4-carboxyphenoxy)decanoyl))FI-(D-Glu)-αMeY-LIEGGPSSGAPPPS-NH2
cAMP EC50 (1.0% HSA) (human GLP-1 receptor): 22.4 nM
cAMP EC50 (1.0% HSA) (human GIP receptor): 1.87 nM
cAMP EC50 (1.0% HSA) (human glucagon receptor): > 9950 nM

B4: Example 274 (peptide)
peptide: YXEGTXTSDXSIXLDXIAQXEFIKXLIKGGPSSGAPPPS
modifications: Y-Aib-EGT-αMeF(2F)-TSD-4Pa1-SI-αMeL-LD-Orn-IAQ-Aib-EFIK((2-[2-(2-Amino-ethoxy)-ethoxy]-acetyl)2-(γ-Glu)-(10-(4-carboxyphenoxy)decanoyl))-αMeY-LIK((2-[2-(2-Amino-ethoxy)-ethoxy]-acetyl)2-(γ-Glu)-(10-(4-carboxyphenoxy)decanoyl))GGPSSGAPPPS-NH2
cAMP EC50 (1.0% HSA) (human GLP-1 receptor): 32.9 nM
cAMP EC50 (1.0% HSA) (human GIP receptor): 1.16 nM
cAMP EC50 (1.0% HSA) (human glucagon receptor): > 9950 nM

B5: Example 262 (peptide)
peptide: YXEGTXTSDXSIXLDXIAQXEFIKXLIKGGPSSGAPPPS
modifications: Y-Aib-EGT-αMeF(2F)-TSD-OMeY-SI-αMeL-LD-Orn-IAQ-Aib-EFIK((2-[2-(2-Amino-ethoxy)-ethoxy]-acetyl)2-(γ-Glu)-CO-(CH2)12-CO2H)-αMeY-LIK((2-[2-(2-Amino-ethoxy)-ethoxy]-acetyl)2-(γ-Glu)-CO-(CH2)12-CO2H)GGPSSGAPPPS-NH2
cAMP EC50 (1.0% HSA) (human GLP-1 receptor): 69.8 nM
cAMP EC50 (1.0% HSA) (human GIP receptor): 8.15 nM
cAMP Emax (1.0% HSA) (human GIP receptor): 79.7%
cAMP EC50 (1.0% HSA) (human glucagon receptor): > 9950 nM

B6: Example 277 (peptide)
peptide: YXEGTXTSDXSIXLDXKAQXKFIXXLIEGGPSSGAPPPS
modifications: Y-Aib-EGT-αMeF(2F)-TSD-OMeY-SI-αMeL-LD-Orn-K((2-[2-(2-Amino-ethoxy)-ethoxy]-acetyl)2-(γ-Glu)-(10-(4-carboxyphenoxy)decanoyl))AQ-Aib-K((2-[2-(2-Amino-ethoxy)-ethoxy]-acetyl)2-(γ-Glu)-(10-(4-carboxyphenoxy)decanoyl))FI-(D-Glu)-αMeY-LIEGGPSSGAPPPS-NH2
cAMP EC50 (1.0% HSA) (human GLP-1 receptor): 12.2 nM
cAMP EC50 (1.0% HSA) (human GIP receptor): 0.962 nM
cAMP EC50 (1.0% HSA) (human glucagon receptor): > 9950 nM

B7: Example 282 (peptide)
peptide: YXEGTXTSDXSIXLDXKAQXEFIXXLIKGGPSSGAPPPS
modifications: Y-Aib-EGT-αMeF(2F)-TSD-2Nal-SI-αMeL-LD-Orn-K((2-[2-(2-Amino-ethoxy)-ethoxy]-acetyl)2-(γ-Glu)-(10-(4-carboxyphenoxy)decanoyl))AQ-Aib-EFI-(D-Glu)-αMeY-LIK((2-[2-(2-Amino-ethoxy)-ethoxy]-acetyl)2-(γ-Glu)-(10-(4-carboxyphenoxy)decanoyl))GGPSSGAPPPS-NH2
cAMP EC50 (1.0% HSA) (human GLP-1 receptor): 31.8 nM
cAMP EC50 (1.0% HSA) (human GIP receptor): 1.44 nM
cAMP EC50 (1.0% HSA) (human glucagon receptor): > 9950 nM

B8: Example 256 (peptide)
peptide: YXEGTXTSDXSIXLDXKAQXEFIXXLIKGGPSSGAPPPS
modifications: Y-Aib-EGT-αMeF(2F)-TSD-2Nal-SI-αMeL-LD-Orn-K((2-[2-(2-Amino-ethoxy)-ethoxy]-acetyl)2-CO-(CH2)12-CO2H)AQ-Aib-EFI-(D-Glu)-αMeY-LIK((2-[2-(2-Amino-ethoxy)-ethoxy]-acetyl)2-CO-(CH2)12-CO2H)GGPSSGAPPPS-NH2 …
cAMP EC50 (1.0% HSA) (human GLP-1 receptor): 12.6 nM
cAMP EC50 (1.0% HSA) (human GIP receptor): 1.5 nM
cAMP Emax (1.0% HSA) (human GIP receptor): 75.3%
cAMP EC50 (1.0% HSA) (human glucagon receptor): > 9950 nM
